In publication PMC12540871:

Target: CVB3 3D (Coxsackievirus B3, UniProt P03313 1724-2185)
Test: ITC

Sequence of CVB3 3D (P03313 1724-2185): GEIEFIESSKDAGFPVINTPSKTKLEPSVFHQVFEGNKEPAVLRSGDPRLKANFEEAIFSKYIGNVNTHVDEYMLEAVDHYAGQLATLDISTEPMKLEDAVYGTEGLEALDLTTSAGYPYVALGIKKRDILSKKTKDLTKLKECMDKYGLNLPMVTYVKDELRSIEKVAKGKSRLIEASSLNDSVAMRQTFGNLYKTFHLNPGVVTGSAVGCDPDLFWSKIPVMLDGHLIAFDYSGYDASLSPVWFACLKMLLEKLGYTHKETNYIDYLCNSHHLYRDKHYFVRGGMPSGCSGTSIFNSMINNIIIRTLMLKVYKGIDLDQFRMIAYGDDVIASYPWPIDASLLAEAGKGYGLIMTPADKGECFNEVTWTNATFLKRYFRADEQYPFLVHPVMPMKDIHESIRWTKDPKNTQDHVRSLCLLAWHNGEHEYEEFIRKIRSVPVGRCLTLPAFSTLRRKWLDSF

B1: CVB3 CL WT (structured_RNA)
RNA: GGUAAAACAGCCUGUGGGUUGAUCCCACCCACAGGGCCCAUUGGGCGCUAGCACUCUGGUAUCACGGUACCUUUGUGCGCCUGUUUUACC
- binding result: no binding
